Values of other authors in publication PMC10979101.

Target: Gab2 503-524 (Homo sapiens) (UniProt Q9UQC2)
Chain of UniProt Q9UQC2 (Q9UQC2 503-524): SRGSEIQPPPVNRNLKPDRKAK

For Grb2 C-SH3 C-SH3 (from UniProt P62993), the Kd is given as 1700 nM.
